The results in this text go back to publication PMC10786891, “Massively parallel profiling of RNA-targeting CRISPR-Cas13d”.

T1: EsCas13d, nuclease-dead (Eubacterium siraeum, UniProt B0MS50, R295A;H300A;R849A;H854A)
T1 sequence: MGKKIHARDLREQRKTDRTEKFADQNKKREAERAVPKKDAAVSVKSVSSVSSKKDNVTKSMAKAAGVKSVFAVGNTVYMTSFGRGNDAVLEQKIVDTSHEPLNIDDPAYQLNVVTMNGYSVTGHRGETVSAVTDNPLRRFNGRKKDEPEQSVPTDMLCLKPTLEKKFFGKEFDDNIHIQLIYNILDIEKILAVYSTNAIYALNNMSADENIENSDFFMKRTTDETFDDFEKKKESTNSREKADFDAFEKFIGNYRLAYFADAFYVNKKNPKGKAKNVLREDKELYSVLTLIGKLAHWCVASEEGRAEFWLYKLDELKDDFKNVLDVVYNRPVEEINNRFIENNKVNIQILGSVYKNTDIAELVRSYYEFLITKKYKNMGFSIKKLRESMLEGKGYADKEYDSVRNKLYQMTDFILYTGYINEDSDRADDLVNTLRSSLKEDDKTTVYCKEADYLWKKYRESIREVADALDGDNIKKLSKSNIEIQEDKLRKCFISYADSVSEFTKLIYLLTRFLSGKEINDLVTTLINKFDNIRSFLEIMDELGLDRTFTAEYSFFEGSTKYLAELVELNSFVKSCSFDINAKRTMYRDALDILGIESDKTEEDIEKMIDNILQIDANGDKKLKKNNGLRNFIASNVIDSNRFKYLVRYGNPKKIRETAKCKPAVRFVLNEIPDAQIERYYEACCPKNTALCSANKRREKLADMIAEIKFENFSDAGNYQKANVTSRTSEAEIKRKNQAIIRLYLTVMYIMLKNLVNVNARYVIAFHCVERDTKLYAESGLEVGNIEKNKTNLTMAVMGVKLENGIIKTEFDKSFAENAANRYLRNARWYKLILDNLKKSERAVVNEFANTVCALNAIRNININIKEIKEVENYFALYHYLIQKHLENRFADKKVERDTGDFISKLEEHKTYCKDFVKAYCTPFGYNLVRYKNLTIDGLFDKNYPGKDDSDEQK

B1: target 1 del5 (mixed)
RNA 1: CACCCGUGCAAAAAUGCAGGGGUCUAAAACUGAGCGGAUAACCUCUCUAUGG
RNA 2: GGGAAUGGAUCCACAUCUACGAAUUCGUACCAUAGAGAGGUUAUCCCUCACCGAGAUCGGAAGAGCACACGU
B2: target 1 insC 3' of 14,insA 3' of 10 (mixed)
RNA 1: B1 RNA 1
RNA 2: GGGAAUGGAUCCACAUCUACGAAUUCGUACCAUAGAGACGGUUAAUCCGCUCACCGAGAUCGGAAGAGCACACGU
B3: target 1 insG 3' of 21,insG 3' of 3 (mixed)
RNA 1: B1 RNA 1
RNA 2: GGGAAUGGAUCCACAUCUACGAAUUCGUACCGAUAGAGAGGUUAUCCGCUGCACCGAGAUCGGAAGAGCACACGU
B4: target 1 insA 3' of 19,insU 3' of 17 (mixed)
RNA 1: B1 RNA 1
RNA 2: B2 RNA 2 with G35A, A36G, G37U, C39G, G40A, U42G, A44U
B5: target 1 U8G,U11A (mixed)
RNA 1: B1 RNA 1
RNA 2: GGGAAUGGAUCCACAUCUACGAAUUCGUACCAUAGAGAGGAUAGCCGCUCACCGAGAUCGGAAGAGCACACGU
B6: target 1 del7,del13 (mixed)
RNA 1: B1 RNA 1
RNA 2: GGGAAUGGAUCCACAUCUACGAAUUCGUACCAUAGAGAGUUAUCGCUCACCGAGAUCGGAAGAGCACACGU
B7: target 1 insU 3' of 17,insG 3' of 16 (mixed)
RNA 1: B1 RNA 1
RNA 2: B2 RNA 2 with A36U, G37A, A38G, C39G, G40A, U42G, A44U
B8: target 1 C6A,C22G (mixed)
RNA 1: B1 RNA 1
RNA 2: B5 RNA 2 with C30G, A41U, G44U, C46A
B9: target 1 insG 3' of 22,insA 3' of 13 (mixed)
RNA 1: B1 RNA 1
RNA 2: GGGAAUGGAUCCACAUCUACGAAUUCGUACGCAUAGAGAGAGUUAUCCGCUCACCGAGAUCGGAAGAGCACACGU
B10: target 1 A1U,C2U (mixed)
RNA 1: B1 RNA 1
RNA 2: B5 RNA 2 with A41U, G44U, C50U, A51U
B11: target 1 insG 3' of 8,insU 3' of 5 (mixed)
RNA 1: B1 RNA 1
RNA 2: B2 RNA 2 with C39G, G41U, U43A, A44U, A45G, U46C, C48G, G49U
B12: target 1 U8C,C21U (mixed)
RNA 1: B1 RNA 1
RNA 2: B5 RNA 2 with C31U, A41U, G44C
B13: target 1 G12U,C22U (mixed)
RNA 1: B1 RNA 1
RNA 2: B5 RNA 2 with C30U, G40U, A41U, G44U
B14: target 1 U8C,G15A (mixed)
RNA 1: B1 RNA 1
RNA 2: B5 RNA 2 with G37A, A41U, G44C
B15: target 1 C2U (mixed)
RNA 1: B1 RNA 1
RNA 2: B5 RNA 2 with A41U, G44U, C50U
B16: target 1 C4U (mixed)
RNA 1: B1 RNA 1
RNA 2: B5 RNA 2 with A41U, G44U, C48U
B17: target 1 insA 3' of 21,insU 3' of 4 (mixed)
RNA 1: B1 RNA 1
RNA 2: B3 RNA 2 with G32A, G51U
B18: target 1 C2U,U11A (mixed)
RNA 1: B1 RNA 1
RNA 2: B5 RNA 2 with G44U, C50U
B19: target 1 C7A,G17U (mixed)
RNA 1: B1 RNA 1
RNA 2: B5 RNA 2 with G35U, A41U, G44U, C45A
B20: target 1 del2,del16 (mixed)
RNA 1: B1 RNA 1
RNA 2: B6 RNA 2 with A36G, G37A, A38G, G45C, C46G, U47C, C48U
B21: target 1 insG 3' of 22,insA 3' of 5 (mixed)
RNA 1: B1 RNA 1
RNA 2: B3 RNA 2 with C31G, G32C, C49A, U50C, G51U
B22: target 1 A1G,G15A (mixed)
RNA 1: B1 RNA 1
RNA 2: B5 RNA 2 with G37A, A41U, G44U, A51G
B23: target 1 insU 3' of 20,insU 3' of 7 (mixed)
RNA 1: B1 RNA 1
RNA 2: B3 RNA 2 with G32A, A33U, C47U, G48C, C49G, U50C, G51U
B24: target 1 insC 3' of 10,insA 3' of 6 (mixed)
RNA 1: B1 RNA 1
RNA 2: B2 RNA 2 with C39G, G41U, U43C, A45U, U46C, C48A
B25: target 1 A1U,G15A (mixed)
RNA 1: B1 RNA 1
RNA 2: B5 RNA 2 with G37A, A41U, G44U, A51U
B26: target 1 insA 3' of 15,insA 3' of 10 (mixed)
RNA 1: B1 RNA 1
RNA 2: B2 RNA 2 with C39A
B27: target 1 G15A (mixed)
RNA 1: B1 RNA 1
RNA 2: B5 RNA 2 with G37A, A41U, G44U
B28: target 1 insC 3' of 9,insA 3' of 6 (mixed)
RNA 1: B1 RNA 1
RNA 2: B2 RNA 2 with C39G, G41U, U43A, A44C, A45U, U46C, C48A
B29: target 1 C2G,A9U (mixed)
RNA 1: B1 RNA 1
RNA 2: B5 RNA 2 with A41U, A43U, G44U, C50G
B30: target 1 A1G,C2U (mixed)
RNA 1: B1 RNA 1
RNA 2: B5 RNA 2 with A41U, G44U, C50U, A51G
B31: target 1 C6U,U8A (mixed)
RNA 1: B1 RNA 1
RNA 2: B5 RNA 2 with A41U, G44A, C46U
B32: target 1 C2U,C21U (mixed)
RNA 1: B1 RNA 1
RNA 2: B5 RNA 2 with C31U, A41U, G44U, C50U

Where a chain is given by its changes, count along the chain named. Names may count otherwise.

The target in this data set is T1, EsCas13d, nuclease-dead. Description: crRNA (strand 1, pre-loaded); Mg2+; 40 mM Tris-HCl pH 7.5, 150 mM NaCl, 6 mM MgCl2, 1 mM DTT, 0.1% Tween-20, 0.2 mg/ml BSA; 25 C; 10 min per concentration, then washed. The settings on record: tags: His6-TwinStrep-SUMO cleaved; N-terminal SNAP kept (SNAP-Surface 488); label: 3' end held by stalled T7 RNA polymerase.
In the case of B1, the affinity, expressed as Kd, was 10.4 ± 0.5 nM.

In the case of B2, binding was put at a Kd of 55 ± 8 nM.

Consider B3, for which binding was put at a Kd of 43 ± 6 nM.

Regarding B4, the Kd was ~38 nM.

For B5, the affinity, expressed as Kd, was 27.6 ± 2.2 nM.

Molecule B6 had a dissociation constant (Kd) of 15.6 ± 1.3 nM.

The molecule B7 yielded a Kd of 44 ± 5 nM.

In the case of B8, the Kd stood at 39 ± 5 nM.

As to B9, the Kd was 11.5 ± 0.7 nM.

In turn, B10 came in with a Kd of 9.6 ± 0.5 nM. This Kd and that of the molecule before are within 1.5-fold of each other.

The molecule B11 showed a Kd of 15.7 ± 1.1 nM. This Kd lies about 1.6-fold higher than the previous one.

B12 registered a Kd of 9.6 ± 0.5 nM.

With B13, the Kd came out at 21.7 ± 2.8 nM. This Kd lies about 2.3-fold higher than the previous one.

In turn, B14 had a Kd of 26.8 ± 2.1 nM. The Kd values of the last two molecules are within 1.5-fold of each other.

The molecule B15 yielded a Kd of 9.7 ± 0.7 nM.

B16 showed a Kd of 30 ± 4 nM.

B17 yielded a Kd of 12.5 ± 1 nM.

B18: the equilibrium dissociation constant (Kd) came to 29.5 ± 3.5 nM.

In turn, B19 had a dissociation constant Kd of 34 ± 6 nM.

Molecule B20 displayed a Kd of 82 ± 18 nM.

In turn, B21 yielded a Kd of 23.1 ± 2.2 nM.

In turn, B22 showed a Kd of 11.1 ± 0.5 nM. Compared with the last molecule, the Kd is about 2.1-fold lower.

Molecule B23 returned a Kd of 28.6 ± 1.5 nM.

In the case of B24, binding was put at a Kd of 25.5 ± 2.5 nM.

In turn, B25 registered a Kd of 11.2 ± 0.7 nM.

B26 showed a Kd of 9.7 ± 0.6 nM.

B27 yielded a Kd of 10.8 ± 0.4 nM. This Kd and that of the molecule before are within 1.5-fold of each other.

The molecule B28 showed a dissociation constant (Kd) of 14 ± 0.4 nM.

Molecule B29 yielded a Kd of 8.7 ± 1 nM.

As for B30, the Kd stood at 8.7 ± 0.7 nM.

Consider B31, for which binding was characterised by a dissociation constant (Kd) of 15.1 ± 0.5 nM. This Kd is about 1.7-fold higher than that of the molecule before.

As for B32, the affinity, expressed as Kd, was 8.2 ± 0.8 nM.

What is called Kd is the constant that tells how readily two partners part at equilibrium.
